Experimental data from patent US20050064507.

Assays:
[1] = target: T1, NEURL peptide ALRRPSLRREADD (SEQ ID NO:105) (not fully specified)
T1 chain: ALRRPSLRREADD

[2] = target: T2, dag kinase zeta peptide RPQNTLKASKKKKRASFKRK (SEQ ID NO:118) (not fully specified)
T2 chain: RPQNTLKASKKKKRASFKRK

[3] = target: T3, PARIS1 peptide EYLERRASRRRAV (SEQ ID NO:130) (not fully specified)
T3 chain: EYLERRASRRRAV

[4] = target: T4, splicing factor, arginine/serine-rich 4 peptide RSRSRSRSKSKDKRKSRKRS (SEQ ID NO:134) (not fully specified)
T4 chain: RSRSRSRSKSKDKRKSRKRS

[5] = target: T5, PLEC1 peptide KRERKTSSKSSVRKRR (SEQ ID NO:81) (not fully specified)
T5 chain: KRERKTSSKSSVRKRR

[6] = target: T6, MARCKS peptide PSPSNETPKKKKKRFSFKKS (SEQ ID NO:157) (not fully specified)
T6 chain: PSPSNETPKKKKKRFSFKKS

[7] = target: T7, MCM2 peptide VQRHRSMRKTFARYLSFRRD (SEQ ID NO:129) (not fully specified)
T7 chain: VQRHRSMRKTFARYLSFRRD

[8] = target: T8, … peptide KKPFKLSGLSFKRNRKE (SEQ ID NO:88) (not fully specified)
T8 chain: KKPFKLSGLSFKRNRKE

[9] = target: T9, titin peptide PFEVVWYKDKRQLRSSKKYK (SEQ ID NO:160) (not fully specified)
T9 chain: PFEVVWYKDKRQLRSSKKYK

[10] = target: T10, MARCKS peptide KKRFSFKKSFKLSGFSFKKN (SEQ ID NO:123) (not fully specified)
T10 chain: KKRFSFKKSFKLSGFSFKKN

[11] = target: T11, MacMARCKS peptide KKKFSFKKPFKLSGLSFKRN (SEQ ID NO:162) (not fully specified)
T11 chain: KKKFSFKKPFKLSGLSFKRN

[12] = target: T12, SMARCA5 peptide MAQIERGEARIQRRISIKKA (SEQ ID NO:166) (not fully specified)
T12 chain: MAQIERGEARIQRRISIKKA

[13] = target: T13, NCF1 peptide GAPPRRSSIRNAH (SEQ ID NO:101) (not fully specified)
T13 chain: GAPPRRSSIRNAH

[14] = target: T14, AF15q14 peptide GFLNEPLSSKSQRRKSLKLK (SEQ ID NO:132) (not fully specified)
T14 chain: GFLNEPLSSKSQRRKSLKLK

[15] = target: T15, MARCKS peptide KKKKKRFSFKKSFKL (SEQ ID NO:80) (not fully specified)
T15 chain: KKKKKRFSFKKSFKL

[16] = target: T16, PRKCA peptide RFARKGSLRQKNV (SEQ ID NO:85) (not fully specified)
T16 chain: RFARKGSLRQKNV

[17] = target: T17, PSCD2 peptide AARKKRISVKKKQEQ (SEQ ID NO:93) (not fully specified)
T17 chain: AARKKRISVKKKQEQ

[18] = target: T18, Myt1 kinase peptide PPRTPGWHQLQPRRVSFRGE (SEQ ID NO:163) (not fully specified)
T18 chain: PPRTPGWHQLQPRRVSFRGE

[19] = target: T19, CACNA1C peptide RGFLRSASLGRRASFHLE (SEQ ID NO:96) (not fully specified)
T19 chain: RGFLRSASLGRRASFHLE

[20] = target: T20, plectin peptide PLKEKKRERKTSSKSSVRKR (SEQ ID NO:125) (not fully specified)
T20 chain: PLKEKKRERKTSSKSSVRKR

[21] = target: T21, EBNA1BP2 peptide KRPGKKGSNKRPGKR (SEQ ID NO:112) (not fully specified)
T21 chain: KRPGKKGSNKRPGKR

[22] = target: T22, PARIS1 peptide RELEQLKAEYLERRASRRRA (SEQ ID NO:148) (not fully specified)
T22 chain: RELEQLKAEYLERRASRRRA

[23] = target: T23, slp4 peptide TYLLPDKSRQGKRKTSIKRD (SEQ ID NO:153) (not fully specified)
T23 chain: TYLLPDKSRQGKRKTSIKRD

[24] = target: T24, GABA A receptor beta 2 peptide ERHVAQKKSRLRRRASQLKI (SEQ ID NO:142) (not fully specified)
T24 chain: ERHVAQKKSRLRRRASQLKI

[25] = target: T25, MYBPC3 peptide LLKKRDSFRTPRDSKLE (SEQ ID NO:103) (not fully specified)
T25 chain: LLKKRDSFRTPRDSKLE

[26] = target: T26, MARCKS peptide KKRFSFKKSFKLSGFSFKKN (SEQ ID NO:119) (not fully specified)
T26 chain: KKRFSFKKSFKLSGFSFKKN

[27] = target: T27, NIK peptide WKGKRRSKARKKRK (SEQ ID NO:131) (not fully specified)
T27 chain: WKGKRRSKARKKRK

[28] = target: T28, ASIP peptide KKRSSKKEASMKKVVRP (SEQ ID NO:97) (not fully specified)
T28 chain: KKRSSKKEASMKKVVRP

[29] = target: T29, nuclear RNA export factor 3 peptide VRYTPYTISPYNRKGSFRKQ (SEQ ID NO:143) (not fully specified)
T29 chain: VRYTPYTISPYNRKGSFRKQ

[30] = target: T30, pkc-zeta peptide GLPAPGEDKSIYRRGSRRWR (SEQ ID NO:167) (not fully specified)
T30 chain: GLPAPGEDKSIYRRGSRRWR

B1: PKC-epsilon (protein)
chain: MVVFNGLLKIKICEAVSLKPTAWSLRHAVGPRPQTFLLDPYIALNVDDSRIGQTATKQKTNSPAWHDEFVTDVCNGRKIELAVFHDAPIGYDDFVANCTIQFEELLQNGSRHFEDWIDLEPEGRVYVIIDLSGSSGEAPKDNEERVFRERMRPRKRQGAVRRRVHQVNGHKFMATYLRQPTYCSHCRDFIWGVIGKQGYQCQVCTCVVHKRCHELIITKCAGLKKQETPDQVGSQRFSVNMPHKFGIHNYKVPTFCDHCGSLLWGLLRQGLQCKVCKMNVHRRCETNVAPNCGVDARGIAKVLADLGVTPDKITNSGQRRKKLIAGAESPQPASGSSPSEEDRSKSAPTSPCDQEIKELENNIRKALSFDNRGEEHRAASSPDGQLMSPGENGEVRQGQAKRLGLDEFNFIKVLGKGSFGKVMLAELKGKDEVYAVKVLKKDVILQDDDVDCTMTEKRILALARKHPYLTQLYCCFQTKDRLFFVMEYVNGGDLMFQIQRSRKFDEPRSRFYAAEVTSALMFLHQHGVIYRDLKLDNILLDAEGHCKLADFGMCKEGILNGVTTTTFCGTPDYIAPEILQELEYGPSVDWWALGVLMYEMMAGQPPFEADNEDDLFESILHDDVLYPVWLSKEAVSILKAFMTKNPHKRLGCVASQNGEDAIKQHPFFKEIDWVLLEQKKIKPPFKPRIKTKRDVNNFDQDFTREEPVLTLVDEAIVKQINQEEFKGFSYFGEDLMP
[1]
  in vitro phosphorylation (% of best substrate): 29
[2]
  in vitro phosphorylation, 1 uM peptide (% of best substrate): 89
[3]
  in vitro phosphorylation, 1 uM peptide (% of best substrate): 46
[4]
  in vitro phosphorylation, 1 uM peptide (% of best substrate): 32
[5]
  in vitro phosphorylation (% of best substrate): 59
[6]
  in vitro phosphorylation, 1 uM peptide (% of best substrate): 12
[7]
  in vitro phosphorylation, 1 uM peptide (% of best substrate): 65
[8]
  in vitro phosphorylation (% of best substrate): 44
[9]
  in vitro phosphorylation, 1 uM peptide (% of best substrate): 13
[10]
  in vitro phosphorylation, 1 uM peptide (% of best substrate): 67
[11]
  in vitro phosphorylation, 1 uM peptide (% of best substrate): 19
[12]
  in vitro phosphorylation, 1 uM peptide (% of best substrate): 10
[13]
  in vitro phosphorylation (% of best substrate): 19
[14]
  in vitro phosphorylation, 1 uM peptide (% of best substrate): 47
[15]
  in vitro phosphorylation (% of best substrate): 71
[16]
  in vitro phosphorylation (% of best substrate): 86
[17]
  in vitro phosphorylation (% of best substrate): 40
[18]
  in vitro phosphorylation, 1 uM peptide (% of best substrate): 14
[19]
  in vitro phosphorylation (% of best substrate): 41
[20]
  in vitro phosphorylation, 1 uM peptide (% of best substrate): 48
[21]
  in vitro phosphorylation (% of best substrate): 11
[22]
  in vitro phosphorylation, 1 uM peptide (% of best substrate): 33
[23]
  in vitro phosphorylation, 1 uM peptide (% of best substrate): 24
[24]
  in vitro phosphorylation, 1 uM peptide (% of best substrate): 28
[25]
  in vitro phosphorylation (% of best substrate): 21
[26]
  in vitro phosphorylation, 1 uM peptide (% of best substrate): 81
[27]
  in vitro phosphorylation, 1 uM peptide (% of best substrate): 43
[28]
  in vitro phosphorylation (% of best substrate): 16
[29]
  in vitro phosphorylation, 1 uM peptide (% of best substrate): 21
[30]
  in vitro phosphorylation, 1 uM peptide (% of best substrate): 6
